The record followed here is publication doi:10.64898/2025.12.11.692727, “Nucleophagy removes cytotoxic trapped PARP1” (bioRxiv, 2025).

This assay concerns the target T1, PARP1, recombinant, full length (printed as GFP-PARP1 in the results) (UniProt P09874 1-1014).
T1 construct: Full-length PARP1 cloned into the NcoI and BamHI sites of the pNIC28 vector; The results call the purified protein GFP-PARP1; the methods describe full-length PARP1 in pNIC28 without naming GFP; source: E. coli expression system, purified
Briefly: pull-down; in vitro; PARP1 (2.5 µM) loaded on PARP1-trap beads, TEX264 (2.5 µM) added, 2 hrs at 4°C; 50 mM HEPES pH 7.4, 500 mM NaCl, 0.01% Triton X-100, 1 mM TCEP; stringent washes with 0.1% Triton X-100; Western blot. To be noted: both partners purified.

T1 sequence (P09874 whole entry): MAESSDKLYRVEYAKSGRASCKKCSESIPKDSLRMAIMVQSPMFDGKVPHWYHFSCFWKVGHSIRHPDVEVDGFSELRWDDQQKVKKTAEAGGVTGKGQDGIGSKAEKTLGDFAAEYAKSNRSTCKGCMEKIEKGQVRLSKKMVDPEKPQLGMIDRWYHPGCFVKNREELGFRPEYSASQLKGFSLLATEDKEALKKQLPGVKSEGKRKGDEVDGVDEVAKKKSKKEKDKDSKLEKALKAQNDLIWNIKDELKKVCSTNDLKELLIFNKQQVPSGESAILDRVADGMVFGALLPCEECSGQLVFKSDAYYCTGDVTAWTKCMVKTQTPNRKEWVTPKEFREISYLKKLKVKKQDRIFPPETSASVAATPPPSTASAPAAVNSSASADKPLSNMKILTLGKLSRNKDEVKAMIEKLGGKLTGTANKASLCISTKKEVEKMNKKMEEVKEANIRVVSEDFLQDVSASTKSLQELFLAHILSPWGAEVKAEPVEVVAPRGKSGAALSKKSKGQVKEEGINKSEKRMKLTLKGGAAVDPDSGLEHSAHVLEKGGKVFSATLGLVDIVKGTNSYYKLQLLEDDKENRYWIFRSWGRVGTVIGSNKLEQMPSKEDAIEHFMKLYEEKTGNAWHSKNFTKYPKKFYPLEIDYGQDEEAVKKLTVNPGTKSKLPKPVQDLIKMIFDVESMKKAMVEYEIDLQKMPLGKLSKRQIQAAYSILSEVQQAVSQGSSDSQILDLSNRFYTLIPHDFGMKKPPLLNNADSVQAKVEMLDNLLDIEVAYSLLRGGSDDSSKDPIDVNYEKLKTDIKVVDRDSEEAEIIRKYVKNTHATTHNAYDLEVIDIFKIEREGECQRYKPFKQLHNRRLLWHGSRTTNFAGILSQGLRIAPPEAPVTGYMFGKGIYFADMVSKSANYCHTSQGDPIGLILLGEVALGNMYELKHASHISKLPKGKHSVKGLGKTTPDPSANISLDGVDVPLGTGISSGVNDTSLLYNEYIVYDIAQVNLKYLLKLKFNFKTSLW

B1: TEX264 C-terminal half (186-313), recombinant (domain or fragment, UniProt Q9Y6I9 186-313, looked up)
chain: RQGDFYVPEMKETEWKWRGLVEAIDTQVDGTGADTMSDTSSVSLEVSPGSRETSAATLSPGASSRGWDDGDTRSEHSYSESGASGSSFEELDLEGEGPLGESRLDPGTEPLGTTKWLWEPTAPEKGKE
notes: The range 186-313 of the methods is tied to the 'C-terminal half' of the results by its position; source: E. coli expression system, purified
On to B1, for which the binding result is “binds”.
